Results: US20220185894A1

How the values were obtained:
[1] = molecular target: CD20 endogenously expressed on Raji cells (UniProt P11836); experiment: cell-based or functional assay
[2] = molecular target: mouse LAG-3 expressed on cells (mouse) (UniProt Q61790); experiment: flow cytometry on HEK cells expressing murine LAG-3
[3] = molecular target: mouse LAG-3 expressed on cells (mouse) (UniProt Q61790); experiment: flow cytometry on HEK cells expressing mouse LAG-3
[4] = molecular target: human FcγRIIb/c (R&D Systems, 1875-CD) (human) (UniProt P31994); experiment: SPR, Biacore T200; FcγR immobilised, 500 µg/ml injected
human FcγRIIb/c (R&D Systems, 1875-CD) (human), sequence (P31994 46-217 limits assumed): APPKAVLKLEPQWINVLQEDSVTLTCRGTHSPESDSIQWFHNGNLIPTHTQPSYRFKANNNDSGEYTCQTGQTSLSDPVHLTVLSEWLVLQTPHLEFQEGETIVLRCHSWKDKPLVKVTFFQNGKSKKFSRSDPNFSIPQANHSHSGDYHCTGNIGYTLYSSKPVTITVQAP

[5] = molecular target: human FcγRIIa (R&D Systems, 1330-CD) (human) (UniProt P12318); experiment: as above
human FcγRIIa (R&D Systems, 1330-CD) (human), sequence (P12318 36-218 limits assumed): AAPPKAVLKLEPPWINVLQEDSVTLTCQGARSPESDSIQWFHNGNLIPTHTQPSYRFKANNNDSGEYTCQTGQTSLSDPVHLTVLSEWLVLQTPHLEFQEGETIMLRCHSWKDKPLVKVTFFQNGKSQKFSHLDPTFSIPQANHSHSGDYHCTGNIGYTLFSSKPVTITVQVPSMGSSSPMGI

[6] = molecular target: human FcγRIIa (R&D Systems, 1330-CD) (human) (UniProt P12318); experiment: SPR, BIAcore 3000; FcγR immobilised, 500 µg/ml injected
[7] = molecular target: human FcγRI (R&D Systems, 1257-FC) (human) (UniProt P12314); experiment: SPR, Biacore T200; FcγR immobilised, 200 µg/ml injected
human FcγRI (R&D Systems, 1257-FC) (human), sequence (P12314 16-288 limits assumed): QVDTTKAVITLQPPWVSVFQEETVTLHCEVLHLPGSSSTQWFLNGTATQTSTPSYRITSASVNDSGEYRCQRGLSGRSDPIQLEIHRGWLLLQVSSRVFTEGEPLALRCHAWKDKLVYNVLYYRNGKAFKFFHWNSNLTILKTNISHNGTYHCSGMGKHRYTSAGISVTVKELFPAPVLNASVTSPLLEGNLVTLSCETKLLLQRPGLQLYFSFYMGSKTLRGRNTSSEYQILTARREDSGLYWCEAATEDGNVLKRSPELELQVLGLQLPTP

[8] = molecular target: human FcγRIIIa (R&D Systems, 4325-FC) (human) (UniProt P08637); experiment: as above
human FcγRIIIa (R&D Systems, 4325-FC) (human), sequence (P08637 17-208 limits assumed): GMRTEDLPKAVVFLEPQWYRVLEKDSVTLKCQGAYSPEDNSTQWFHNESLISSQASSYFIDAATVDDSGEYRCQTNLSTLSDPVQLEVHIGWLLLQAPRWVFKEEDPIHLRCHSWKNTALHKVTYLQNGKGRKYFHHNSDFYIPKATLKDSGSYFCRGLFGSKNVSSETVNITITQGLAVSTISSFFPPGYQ

[9] = molecular target: human FcγRIIb/c (R&D Systems, 1875-CD) (human) (UniProt P31994); experiment: SPR, BIAcore 3000; FcγR immobilised, 500 µg/ml injected
[10] = molecular target: human FcγRI (R&D Systems, 1257-FC) (human) (UniProt P12314); experiment: SPR, BIAcore 3000; FcγR immobilised, 100 µg/ml injected

CD20 endogenously expressed on Raji cells, sequence (P11836 whole entry): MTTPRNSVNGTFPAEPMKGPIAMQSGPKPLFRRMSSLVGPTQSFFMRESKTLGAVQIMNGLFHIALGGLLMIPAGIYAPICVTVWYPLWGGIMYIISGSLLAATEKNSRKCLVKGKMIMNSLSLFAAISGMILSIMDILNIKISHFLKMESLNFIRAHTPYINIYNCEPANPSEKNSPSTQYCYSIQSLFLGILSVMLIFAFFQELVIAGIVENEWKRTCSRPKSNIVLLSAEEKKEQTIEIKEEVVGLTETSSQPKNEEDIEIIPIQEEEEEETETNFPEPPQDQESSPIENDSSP
mouse LAG-3 expressed on cells (mouse), sequence (Q61790 24-521 limits assumed): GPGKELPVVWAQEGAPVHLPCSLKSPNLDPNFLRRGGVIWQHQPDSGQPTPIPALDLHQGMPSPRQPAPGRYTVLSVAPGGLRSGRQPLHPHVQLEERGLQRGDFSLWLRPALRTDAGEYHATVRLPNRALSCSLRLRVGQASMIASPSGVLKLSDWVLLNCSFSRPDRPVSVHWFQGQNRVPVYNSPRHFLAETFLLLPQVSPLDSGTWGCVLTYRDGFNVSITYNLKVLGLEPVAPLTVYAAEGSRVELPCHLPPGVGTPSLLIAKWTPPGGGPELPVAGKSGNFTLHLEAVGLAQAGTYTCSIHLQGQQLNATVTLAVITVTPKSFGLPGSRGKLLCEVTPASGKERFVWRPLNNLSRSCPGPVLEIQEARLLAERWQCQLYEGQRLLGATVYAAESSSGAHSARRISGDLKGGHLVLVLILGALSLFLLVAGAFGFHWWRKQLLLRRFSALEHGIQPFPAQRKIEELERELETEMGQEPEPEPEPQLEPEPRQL

Substance | binding response at end of association (RU) [4] [RU] | binding response at end of association (RU) [5] [RU] | binding response at end of association (RU) [6] [RU] | binding response at end of association (RU) [7] [RU] | binding response at end of association (RU) [8] [RU] | also measured
anti-CD20 antibody Rituximab (generic version, IgG1 format) |  |  |  |  |  | ADCC, LDH release, maximum lysis of LAG-3 expressing Raji cells [1]: 40%; ADCC, LDH release, maximum lysis of PD-L1 expressing Raji cells [1]: 40%; CDC, LDH release, maximum lysis of PD-L1 expressing Raji cells [1]: < 60%
benchmark anti-mouse LAG-3 mAb C9B7W (2B Scientific, BE0174-50MG) (antibody) |  |  |  |  |  | EC50 [2]: 27 nM; EC50 [3]: 79 nM; fold poorer affinity (EC50) than the Fcabs [3]: 17 fold
monoclonal IgG2 isotype mAb to an irrelevant target (antibody) | 7.4 | 9.7 | 9 | 0 | 1.9 | 
monoclonal IgG4 isotype mAb to an irrelevant target (antibody) | 15.1 | 4.3 | 8 | 9 | 3.1 | binding response at end of association (RU) [9]: 9 RU; binding response at end of association (RU) [10]: 8 RU
mouse IgG1 (Sigma, P5305) (antibody) |  |  | 7 |  |  | 
